# In the supplement of paper PMC11316812:
# ± gives the standard deviation of the averaged measurements.
# Legend:
# hTERT-HMEC = test: percentage of EdU-negative (G0-arrested) nuclei per well, 72 h; higher = more G0 arrest; conditions: reference: sequence is the full UniProt precursor, the tested protein was the secreted form or ectodomain
# MCF7 = test: as above; conditions: reference: sequence is the full UniProt precursor, the tested protein was the secreted form or ectodomain
# [1] = protein concentration 0.0225 µM
# [2] = protein concentration 0.0175 µM
# [3] = protein concentration 0.0128571 µM
# [4] = protein concentration 0.128571 µM
# [5] = protein concentration 0.0214286 µM
# [6] = protein concentration 0.214286 µM
# [7] = protein concentration 0.0257143 µM
# [8] = protein concentration 0.257143 µM
# 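Note: secreted proteins added to cultured cells, EdU pulse at the end, nuclei found by Hoechst imaging, EdU status from nuclear versus surrounding ring intensity ratio, PBS as neutral control.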
sequence,measurement,setting,value
MGPPSASPHRECIPWQGLLLTASLLNFWNPPTTAKLTIESMPLSVAEGKEVLLLVHNLPQHLFGYSWYKGERVDGNSLIVGYVIGTQQATPGAAYSGRETIYTNASLLIQNVTQNDIGFYTLQVIKSDLVNEEATGQFHVYQENAPGLPVGAVAGIVTGVLVGVALVAALVCFLLLAKTGRTSIQRDLKEQQPQALAPGRGPSHSSAFSMSPLSTAQAPLPNPRTAASIYEELLKHDTNIYCRMDHKAEVAS,percentage of EdU-negative,hTERT-HMEC; [1],5.43 ± 0.36%
same,percentage of EdU-negative,hTERT-HMEC; protein concentration 0.225 µM,5.03 ± 0.028%
same,percentage of EdU-negative,MCF7; [1],25 ± 3.7%
same,percentage of EdU-negative,MCF7; protein concentration 0.225 µM,25.4 ± 1.4%
MGPPSSSGFYVSRAVALLLAGLVAALLLALAVLAALYGHCERVPPSELPGLRDLEAESSPPLRQKPTPTPKPSSARELAVTTTPSNWRPPGPWDQLRLPPWLVPLHYDLELWPQLRPDELPAGSLPFTGRVNITVRCTVATSRLLLHSLFQDCERAEVRGPLSPGTGNATVGRVPVDDVWFALDTEYMVLELSEPLKPGSSYELQLSFSGLVKEDLREGLFLNVYTDQGERRALLASQLEPTFARYVFPCFDEPALKATFNITMIHHPSYVALSNMPKLGQSEKEDVNGSKWTVTTFSTTPHMPTYLVAFVICDYDHVNRTERGKEIRIWARKDAIANGSADFALNITGPIFSFLEDLFNISYSLPKTDIIALPSFDNHAMENWGLMIFDESGLLLEPKDQLTEKKTLISYVVSHEIGHQWFGNLVTMNWWNNIWLNEGFASYFEFEVINYFNPKLPRNEIFFSNILHNILREDHALVTRAVAMKVENFKTSEIQELFDIFTYSKGASMARMLSCFLNEHLFVSALKSYLKTFSYSNAEQDDLWRHFQMAIDDQSTVILPATIKNIMDSWTHQSGFPVITLNVSTGVMKQEPFYLENIKNRTLLTSNDTWIVPILWIKNGTTQPLVWLDQSSKVFPEMQVSDSDHDWVILNLNMTGYYRVNYDKLGWKKLNQQLEKDPKAIPVIHRLQLIDDAFSLSKNNYIEIETALELTKYLAEEDEIIVWHTVLVNLVTRDLVSEVNIYDIYSLLKRYLLKRLNLIWNIYSTIIRENVLALQDDYLALISLEKLFVTACWLGLEDCLQLSKELFAKWVDHPENEIPYPIKDVVLCYGIALGSDKEWDILLNTYTNTTNKEEKIQLAYAMSCSKDPWILNRYMEYAISTSPFTSNETNIIEVVASSEVGRYVAKDFLVNNWQAVSKRYGTQSLINLIYTIGRTVTTDLQIVELQQFFSNMLEEHQRIRVHANLQTIKNENLKNKKLSARIAAWLRRNT [Q6Q4G3],percentage of EdU-negative,hTERT-HMEC; [2],5.44 ± 0.3%
same,percentage of EdU-negative,hTERT-HMEC; protein concentration 0.175 µM,16.6 ± 0.49%
same,percentage of EdU-negative,MCF7; [2],22.3 ± 0.34%
same,percentage of EdU-negative,MCF7; protein concentration 0.175 µM,27.4 ± 4.3%
MGPRARPALLLLMLLQTAVLQGRLLRSHSLHYLFMGASEQDLGLSLFEALGYVDDQLFVFYDHESRRVEPRTPWVSSRISSQMWLQLSQSLKGWDHMFTVDFWTIMENHNHSKESHTLQVILGCEMQEDNSTEGYWKYGYDGQDHLEFCPDTLDWRAAEPRAWPTKLEWERHKIRARQNRAYLERDCPAQLQQLLELGRGVLDQQVPPLVKVTHHVTSSVTTLRCRALNYYPQNITMKWLKDKQPMDAKEFEPKDVLPNGDGTYQGWITLAVPPGEEQRYTCQVEHPGLDQPLIVIWEPSPSGTLVIGVISGIAVFVVILFIGILFIILRKRQGSRGAMGHYVLAERE,percentage of EdU-negative,hTERT-HMEC; [3],5.75 ± 0.3%
same,percentage of EdU-negative,hTERT-HMEC; [4],7.25 ± 1.1%
same,percentage of EdU-negative,MCF7; [3],25.8 ± 0.42%
same,percentage of EdU-negative,MCF7; [4],29 ± 1.8%
MGPWSRSLSALLLLLQVSSWLCQEPEPCHPGFDAESYTFTVPRRHLERGRVLGRVNFEDCTGRQRTAYFSLDTRFKVGTDGVITVKRPLRFHNPQIHFLVYAWDSTYRKFSTKVTLNTVGHHHRPPPHQASVSGIQAELLTFPNSSPGLRRQKRDWVIPPISCPENEKGPFPKNLVQIKSNKDKEGKVFYSITGQGADTPPVGVFIIERETGWLKVTEPLDRERIATYTLFSHAVSSNGNAVEDPMEILITVTDQNDNKPEFTQEVFKGSVMEGALPGTSVMEVTATDADDDVNTYNAAIAYTILSQDPELPDKNMFTINRNTGVISVVTTGLDRESFPTYTLVVQAADLQGEGLSTTATAVITVTDTNDNPPIFNPTTYKGQVPENEANVVITTLKVTDADAPNTPAWEAVYTILNDDGGQFVVTTNPVNNDGILKTAKGLDFEAKQQYILHVAVTNVVPFEVSLTTSTATVTVDVLDVNEAPIFVPPEKRVEVSEDFGVGQEITSYTAQEPDTFMEQKITYRIWRDTANWLEINPDTGAISTRAELDREDFEHVKNSTYTALIIATDNGSPVATGTGTLLLILSDVNDNAPIPEPRTIFFCERNPKPQVINIIDADLPPNTSPFTAELTHGASANWTIQYNDPTQESIILKPKMALEVGDYKINLKLMDNQNKDQVTTLEVSVCDCEGAAGVCRKAQPVEAGLQIPAILGILGGILALLILILLLLLFLRRRAVVKEPLLPPEDDTRDNVYYYDEEGGGEEDQDFDLSQLHRGLDARPEVTRNDVAPTLMSVPRYLPRPANPDEIGNFIDENLKAADTDPTAPPYDSLLVFDYEGSGSEAASLSSLNSSESDKDQDYDYLNEWGNRFKKLADMYGGGEDD,percentage of EdU-negative,hTERT-HMEC; [5],5.09 ± 0.58%
same,percentage of EdU-negative,hTERT-HMEC; [1],4.93 ± 0.37%
same,percentage of EdU-negative,hTERT-HMEC; [6],6.74 ± 0.63%
same,percentage of EdU-negative,hTERT-HMEC; protein concentration 0.225 µM,23.4 ± 1.1%
same,percentage of EdU-negative,MCF7; [5],23.8 ± 3.6%
same,percentage of EdU-negative,MCF7; [1],26.2 ± 3.6%
same,percentage of EdU-negative,MCF7; [6],26.8 ± 1.9%
same,percentage of EdU-negative,MCF7; protein concentration 0.225 µM,28.91 ± 0.16%
MGRDLRPGSRVLLLLLLLLLVYLTQPGNGNEGSVTGSCYCGKRISSDSPPSVQFMNRLRKHLRAYHRCLYYTRFQLLSWSVCGGNKDPWVQELMSCLDLKECGHAYSGIVAHQKHLLPTSPPISQASEGASSDIHTPAQMLLSTLQSTQRPTLPVGSLSSDKELTRPNETTIHTAGHSLAAGPEAGENQKQPEKNAGPTARTSATVPVLCLLAIIFILTAALSYVLCKRRRGQSPQSSPDLPVHYIPVAPDSNT [Q9H2A7],percentage of EdU-negative,hTERT-HMEC; [7],4.5 ± 0.52%
same,percentage of EdU-negative,hTERT-HMEC; [8],4.18 ± 0.16%
same,percentage of EdU-negative,MCF7; [7],25.9 ± 0.7%
same,percentage of EdU-negative,MCF7; [8],25.9 ± 2.8%
